Reference: patent publication US9539367B2, “Gallium inhibits biofilm formation” (priority 2003, dated 2017)

Tested on: P. aeruginosa biofilm
Assay: Biofilm formation of GFP-labeled P. aeruginosa in continuous culture flow cells
Format: cell-based
Conditions: for effect on P. aeruginosa biofilm formation: Fe chelation, concentrations that did not alter growth (lactoferrin 20 μg ml)

Row | Molecule | effect on P. aeruginosa biofilm formation | effect on established biofilm (once the biofilm was established)
1 | lactoferrin: Fe-binding protein (protein, UniProt P02788 20-710, looked up) Lactotransferrin: GRRRSVQWCAVSQPEATKCFQWQRNMRKVRGPPVSCIKRDSPIQCIQAIAENRADAVTLDGGFIYEAGLAPYKLRPVAAEVYGTERQPRTHYYAVAVVKKGGSFQLNELQGLKSCHTGLRRTAGWNVPIGTLRPFLNWTGPPEPIEAAVARFFSASCVPGADKGQFPNLCRLCAGTGENKCAFSSQEPYFSYSGAFKCLRDGAGDVAFIRESTVFEDLSDEAERDEYELLCPDNTRKPVDKFKDCHLARVPSHAVVARSVNGKEDAIWNLLRQAQEKFGKDKSPKFQLFGSPSGQKDLLFKDSAIGFSRVPPRIDSGLYLGSGYFTAIQNLRKSEEEVAARRARVVWCAVGEQELRKCNQWSGLSEGSVTCSSASTTEDCIALVLKGEADAMSLDGGYVYTAGKCGLVPVLAENYKSQQSSDPDPNCVDRPVEGYLAVAVVRRSDTSLTWNSVKGKKSCHTAVDRTAGWNIPMGLLFNQTGSCKFDEYFSQSCAPGSDPRSNLCALCIGDEQGENKCVPNSNERYYGYTGAFRCLAENAGDVAFVKDVTVLQNTDGNNNEAWAKDLKLADFALLCLDGKRKPVTEARSCHLAMAPNHAVVSRMDKVERLKQVLLHQQAKFGRNGSDCPDKFCLFQSETKNLLFNDNTECLARLHGKTTYEKYLGPQYVAGITNLKKCSTSPLLEACEFLRK | profoundly inhibited biofilm formation | unable to alter the biofilm
2 | conalbumin: Fe chelator (protein, UniProt P02789 20-705, looked up) Ovotransferrin: APPKSVIRWCTISSPEEKKCNNLRDLTQQERISLTCVQKATYLDCIKAIANNEADAISLDGGQAFEAGLAPYKLKPIAAEVYEHTEGSTTSYYAVAVVKKGTEFTVNDLQGKTSCHTGLGRSAGWNIPIGTLLHRGAIEWEGIESGSVEQAVAKFFSASCVPGATIEQKLCRQCKGDPKTKCARNAPYSGYSGAFHCLKDGKGDVAFVKHTTVNENAPDQKDEYELLCLDGSRQPVDNYKTCNWARVAAHAVVARDDNKVEDIWSFLSKAQSDFGVDTKSDFHLFGPPGKKDPVLKDLLFKDSAIMLKRVPSLMDSQLYLGFEYYSAIQSMRKDQLTPSPRENRIQWCAVGKDEKSKCDRWSVVSNGDVECTVVDETKDCIIKIMKGEADAVALDGGLVYTAGVCGLVPVMAERYDDESQCSKTDERPASYFAVAVARKDSNVNWNNLKGKKSCHTAVGRTAGWVIPMGLIHNRTGTCNFDEYFSEGCAPGSPPNSRLCQLCQGSGGIPPEKCVASSHEKYFGYTGALRCLVEKGDVAFIQHSTVEENTGGKNKADWAKNLQMDDFELLCTDGRRANVMDYRECNLAEVPTHAVVVRPEKANKIRDLLERQEKRFGVNGSEKSKFMMFESQNKDLLFKDLTKCLFKVREGTTYKEFLGDKFYTVISSLKTCNPSDILQMCSFLEGK | duplicated | –
